Experimental data: US20130115166A1 (CEPHALON AUSTRALIA, published 2013)
Changes are numbered by the printed parent chain. Each block holds one binder with its values, some of them ahead of it.

Assays:
IL-23 (HEK293E-derived) = target: T1, IL-23 (HEK293E-derived) (human, UniProt P29460 23-328; Q9NPF7 20-189); test: SPR (Biacore), antibody supernatant captured on Protein A, IL-23 at 5 ug/ml as analyte
T1 sequence 1: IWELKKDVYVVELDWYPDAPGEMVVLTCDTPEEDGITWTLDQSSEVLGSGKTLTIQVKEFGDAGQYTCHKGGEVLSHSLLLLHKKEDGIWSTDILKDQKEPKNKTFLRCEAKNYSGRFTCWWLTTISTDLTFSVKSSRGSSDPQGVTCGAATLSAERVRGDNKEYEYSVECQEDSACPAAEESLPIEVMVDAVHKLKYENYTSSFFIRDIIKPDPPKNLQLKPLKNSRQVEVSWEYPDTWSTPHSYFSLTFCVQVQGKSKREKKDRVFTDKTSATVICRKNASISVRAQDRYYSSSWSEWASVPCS
T1 sequence 2: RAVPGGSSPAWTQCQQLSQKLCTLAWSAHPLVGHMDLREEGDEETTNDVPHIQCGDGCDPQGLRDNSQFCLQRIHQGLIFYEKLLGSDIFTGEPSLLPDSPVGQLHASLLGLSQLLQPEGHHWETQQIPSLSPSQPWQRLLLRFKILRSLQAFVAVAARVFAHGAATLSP
Method: As a result of the humanization processes 22 humanized antibodies were produced and tested for their ability to bind human IL-23 (Table 4). Briefly, 2 mL transfections of the 22 humanized antibodies were screened for antibody expression level and binding activity via SPR. Protein A was immobilized onto FC1 and FC2 (or alternatively FC3 and FC4) of a CM5 research grade sensor chip using amine coupling, giving approximately 3000 RU. FC1 was used as a blank throughout the experiments. The experiments were run in HBS-P buffer (SPR). Antibody-containing cell culture supernatants were diluted in 10× HBS-P buffer at a ratio of 9:1. The diluted antibody was injected over FC2 at a flow rate of 20 μl/min. IL-23 (HEK293E-derived) was passed over the surface of FC1 and FC2 at a concentrations of 5 μg/ml as a kinetic injection with 5 min dissociation time across both
FC. Regeneration of the surface was performed using 10 mM Glycine, pH 1.5. The sensorgram data from FC2 were subtracted from FC1 and a buffer only control. […] The Sequence IDs of the variable heavy and light chains for each antibody are given in the Table 4 along with kd (off-rates) of selected tested antibodies.

IL-12p40Fc = target: T2, IL-12p40Fc (human); test: ELISA, coated human IL-12p40-Fc, biotinylated antibody, streptavidin-HRP, mOD at 450 nm [panel C]
T2 construct: also called human p40-Fc; human IL-12p40-Fc fusion protein

Human IL-23 [1] = target: T3, Human IL-23 (human, UniProt P29460 23-328; Q9NPF7 20-189); test: competition ELISA: biotinylated hIL-23 (100 ng/ml) pre-incubated with antibody, binding to coated hIL23R-HIS detected with streptavidin-HRP; blocked partner IL-23R
T3 construct: Heterodimer of IL-12p40 covalently linked to IL-23p19, purchased (Ebiosciences or RnD Systems); Biotinylated hIL-23 was used in the IL-23R assay; also called hIL-23; rhIL23
T3 sequence 1: T1 sequence 1
T3 sequence 2: T1 sequence 2

Human IL-23 [2] = target: T3, Human IL-23; test: SPR (Biacore 3000), antibody captured on Protein A, IL-23 as analyte, 1:1 Langmuir fit; below the limit of sensitivity
Method: (§1) Using a Biacore 3000, Protein A (Pierce) was immobilized on a CM5 chip using amine coupling chemistry to give 3000 Response Units (RU). Antibody was captured on the surface of the chip in flow cell 2 or 4 with a control surface in flow cell 1 or 3. Human IL-23 was then passed over both flow cells and the response units measured. The surface was then regenerated with 10 mM glycine pH 2.5. For a kinetic run this process was repeated with 5 dilutions of IL-23. Data was double referenced using an injection of running buffer before being fitted using a 1:1 Langmuir equation to determine ka, kd and KD.

IL-23Fc = target: T4, IL-23Fc (human, UniProt Q9NPF7 20-189); test: ELISA, coated human IL-23 (IL-23Fc), biotinylated antibody, streptavidin-HRP, mOD at 450 nm [panel A]
T4 construct: Produced in HEK293E
Method: A NuncMaxisorp 96-well plate was coated with human IL-23 diluted to […] in carbonate coating buffer and overnight incubation at 4° C. The plate was washed (three times in 1×PBS-Tween20 (0.05%)) then blocked for an hour with 1% BSA in PBS at room temperature. Biotinylated antibody was prepared starting from 10 μg/ml and serial half log dilutions were performed then 100 μl was added to the plate and incubated for an hour. The plate was washed and Streptavidin-HRP at 1:2000 dilution was added to all wells and further incubated for an hour. The plate was washed and subsequently developed using TMB (Sigma). The color development reaction was stopped by addition of an equal volume of 1M HCl. Absorbance of the resulting reaction was determined using a plate-based spectrophotometer.

Human IL-23 [3] = target: T3, Human IL-23; test: SPR (Biacore 3000), antibody captured on Protein A, IL-23 as analyte, 1:1 Langmuir fit
Method: as §1

FLAG-tagged IL-12p40 = target: T5, FLAG-tagged IL-12p40 (human, UniProt P29460 23-328); test: ELISA, hybridoma supernatant on antigen captured by anti-FLAG M2
T5 sequence: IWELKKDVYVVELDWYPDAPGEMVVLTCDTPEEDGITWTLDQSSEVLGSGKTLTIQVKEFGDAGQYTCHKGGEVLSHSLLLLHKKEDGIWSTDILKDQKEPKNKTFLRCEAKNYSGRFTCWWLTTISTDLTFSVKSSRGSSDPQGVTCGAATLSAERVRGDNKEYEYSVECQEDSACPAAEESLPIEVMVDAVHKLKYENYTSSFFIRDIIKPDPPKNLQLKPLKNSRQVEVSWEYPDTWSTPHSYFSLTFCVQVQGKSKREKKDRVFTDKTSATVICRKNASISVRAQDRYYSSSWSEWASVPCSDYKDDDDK
Method: (§2) Anti-FLAG M2 antibody (Sigma-Aldrich) was coated onto ELISA plates overnight. These plates were then used to capture individually: FLAG-tagged IL-23p19, FLAG-tagged IL-12p40 and FLAG-tagged IL-23. Hybridoma supernatant from the clones was added and hybridomas that were positive for binding to IL-23 but not IL-12p40 or IL-23p19 were expanded.

FLAG-tagged IL-23p19 = target: T6, FLAG-tagged IL-23p19 (human, UniProt Q9NPF7 20-189); test: as above
T6 sequence: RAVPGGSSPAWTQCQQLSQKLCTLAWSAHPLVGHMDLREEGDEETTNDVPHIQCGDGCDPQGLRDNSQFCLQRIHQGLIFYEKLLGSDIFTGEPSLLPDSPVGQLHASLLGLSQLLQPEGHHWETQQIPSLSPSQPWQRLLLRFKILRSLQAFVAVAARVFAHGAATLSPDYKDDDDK
Method: as §2

IL-23p19 [4] = target: T7, IL-23p19 (human, UniProt Q9NPF7 20-189); test: ELISA, coated antigen IL-23p19, mOD at 450 nm; blank = coating antigen omitted [panel 8-22]
T7 construct: also called IL-23p19 subunit
T7 sequence: T1 sequence 2

IL-12p40 [5] = target: T8, IL-12p40 (human, UniProt P29460 23-328); test: ELISA, coated antigen IL-12p40, mOD at 450 nm; blank = coating antigen omitted [panel 8-22]
T8 construct: also called IL-12p40 subunit
T8 sequence: T1 sequence 1

IL-23p19 [6] = target: T7, IL-23p19; test: ELISA, coated antigen IL-23p19, mOD at 450 nm; blank = coating antigen omitted [panel 20-4]
IL-12p40 [7] = target: T8, IL-12p40; test: ELISA, coated antigen IL-12p40, mOD at 450 nm; blank = coating antigen omitted [panel 20-4]
IL-12p40 [8] = target: T8, IL-12p40; test: ELISA, coated antigen IL-12p40, mOD at 450 nm; blank = coating antigen omitted [panel 6-22]
IL-23p19 [9] = target: T7, IL-23p19; test: ELISA, coated antigen IL-23p19, mOD at 450 nm; blank = coating antigen omitted [panel 6-22]

B1: E11E7Chimera (antibody, human IgG1, kappa, V domains shown)
VH: QVQLKESGPGLVQPSQTLSLTCTVSGFSLISYNVHWVRQPRGKGLEWMGVIWTGGSTDYNSVLKSRLSISRDTSKSQVFLKMHSLQTEDIGTYYCARDKYGLFPGYFDYWGQGVMVTVSS
VL: DIVMTQSPFSLAVSEGEMVTINCKPSQSLLSSGNRKNYLAWYQQKPGQSPKLLIYYASTRQSGVPDRFIGSGSGTDFTLTISDVQAEDLADYYCLQHFNYPWTFGGGTKLELKR
notes: Rat E11E7 variable regions on human constant regions; also called E11E7 chimeric antibody
- koff (IL-23 (HEK293E-derived)): 5.98e-05 s⁻¹
- binding result (IL-12p40Fc): no binding (tested: 10 ug/ml)
- IC50 (read off the curve) (Human IL-23 [1]): ~0.04 µg/mL
- Kd (Human IL-23 [2]): < 0.1 nM
- koff (Human IL-23 [2]): < 1e-05 s⁻¹
- EC50 (read off the curve) (IL-23Fc): ~0.09 µg/mL
- kon (Human IL-23 [3]): 542000 M⁻¹ s⁻¹

B2: E11E7 (antibody, V domains shown)
VH: B1 VH
VL: B1 VL
notes: Rat monoclonal antibody from a hybridoma; also called rat antibody E11E7
- binding result (FLAG-tagged IL-12p40): no binding
- binding result (FLAG-tagged IL-23p19): no binding

B3: 8-22 (antibody, human IgG1, kappa, V domains shown)
VH: QVQLQESGPGLVKPSETLSLTCTVSGFSLISYNVHWIRQPPGKGLEWIGVIWTGGSTDYNPSLKSRVTISRDTSKNQFSLKLSSVTAADTAVYYCARDKYGLFPGYFDYWGQGTLVTVSS
VL: DIVMTQSPDSLAVSLGERATINCKPSQSLLSSGNRKNYLAWYQQKPGQPPKLLIYYASTRQSGVPDRFSGSGSGTDFTLTISSLQAEDVAVYYCLQHFNYPWTFGQGTKLEIKR
notes: Humanized form of E11E7; also called humanized antibody 8-22
- koff (IL-23 (HEK293E-derived)): 0.000117 s⁻¹
- binding result (IL-23p19 [4]): no binding (tested: 10 ug/mL)
- binding result (IL-12p40 [5]): no binding (tested: 10 ug/mL)
- Kd (Human IL-23 [3]): 0.421 nM
- koff (Human IL-23 [3]): 0.000197 s⁻¹
- kon (Human IL-23 [3]): 468000 M⁻¹ s⁻¹

B4: 21-4 (antibody, human IgG1, kappa, V domains shown)
VH: B3 VH with Q1E, E6Q, S7W, P9A, V12L, T23A, S25Y, P61S, S62V
VL: EIVLTQSPATLSLSPGERATLSCKPSQSLLSSGNRKNYLAWYQQKPGQAPRLLIYYASTRQSGIPDRFSGSGSGTDFTLTISRLEPEDFAVYYCLQHFNYPWTFGGGTKVEIKR
notes: Humanized form of E11E7; also called humanized antibody 21-4
- koff (IL-23 (HEK293E-derived)): 0.000191 s⁻¹
- Kd (Human IL-23 [3]): 0.388 nM
- koff (Human IL-23 [3]): 0.000202 s⁻¹
- kon (Human IL-23 [3]): 521000 M⁻¹ s⁻¹

The remaining binders from weak to strong by Kd (Human IL-23 [3]), led by results:

- koff (IL-23 (HEK293E-derived)): 0.000616 s⁻¹
- Kd (Human IL-23 [3]): 2.11 nM
- koff (Human IL-23 [3]): 0.000733 s⁻¹
- kon (Human IL-23 [3]): 348000 M⁻¹ s⁻¹
B5: 1-4 (antibody, human IgG1, kappa, V domains shown)
VH: EVQLQQWGAGLLKPSETLSLTCAVYGGSFSSYNVHWIRQPPGKGLEWIGVIWTGGSTDYNSVLKSRVTISRDTSKNQFSLKLSSVTAADTAVYYCARDKYGLFPGYFDYWGQGTLVTVSS
VL: B4 VL
notes: Humanized form of E11E7; also called humanized antibody 1-4

- koff (IL-23 (HEK293E-derived)): 0.000241 s⁻¹
- binding result (IL-12p40 [8]): no binding (tested: 10 ug/mL)
- binding result (IL-23p19 [9]): no binding (tested: 10 ug/mL)
- Kd (Human IL-23 [3]): 0.86 nM
- koff (Human IL-23 [3]): 0.0004 s⁻¹
- kon (Human IL-23 [3]): 465000 M⁻¹ s⁻¹
B7: 6-22 (antibody, human IgG1, kappa, V domains shown)
VH: B3 VH with L29I, I30S
VL: B3 VL
notes: Humanized form of E11E7; also called humanized antibody 6-22

- koff (IL-23 (HEK293E-derived)): 0.000231 s⁻¹
- binding result (IL-23p19 [6]): no binding (tested: 10 ug/mL)
- binding result (IL-12p40 [7]): no binding (tested: 10 ug/mL)
- Kd (Human IL-23 [3]): 0.47 nM
- koff (Human IL-23 [3]): 0.000202 s⁻¹
- kon (Human IL-23 [3]): 429000 M⁻¹ s⁻¹
B6: 20-4 (antibody, human IgG1, kappa, V domains shown)
VH: B5 VH with G27F, F29L, S30I, R71V
VL: B4 VL
notes: Humanized form of E11E7; also called humanized antibody 20-4
